Test results published in patent US20260250371A1 (ULTRAGENYX PHARMACEUTICAL, published 2026).
Where a chain is given by its changes, count along the chain named. Numbers in names are those of the source. Where “and” joins values, the source holds several entries; their conditions need not be identical. Equal entries are not always repeated. Where two headings read alike, the source gives them in different places.

T1: recombinant human FGF23 (R179Q) (human, UniProt Q9GZV9 25-251)
T1 construct: also called rhFGF23(R179Q); hFGF23(R179Q)
T1 sequence (looked up): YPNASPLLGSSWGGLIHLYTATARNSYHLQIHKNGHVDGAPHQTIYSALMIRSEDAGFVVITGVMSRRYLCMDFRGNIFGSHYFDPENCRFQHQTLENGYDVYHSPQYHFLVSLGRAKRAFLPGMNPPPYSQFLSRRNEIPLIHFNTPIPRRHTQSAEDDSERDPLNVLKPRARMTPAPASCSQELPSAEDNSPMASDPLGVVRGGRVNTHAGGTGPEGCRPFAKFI

T2: cynomolgus monkey (Macaca fascicularis) FGF23 (R179Q) (cynomolgus monkey (Macaca fascicularis), UniProt Q9GZV9 25-251 (human entry), limits assumed)
T2 construct: also called cynoFGF23; cynoFGF23(R179Q)
T2 chain: T1 sequence (looked up) with D85N, Q92R, Q94W, Y108H, I149R, M195V, G219A, A224P

B1: human FGF23 (R179Q) (ligand, UniProt Q9GZV9 25-251, looked up)
chain: T1 sequence (looked up)
modifications: fully glycosylated (from HEK293S cells)
notes: also called hFGF23(R179Q); rhFGF23(R179Q)
B2: UGX144 (antibody, human IgG1, kappa, V domains shown)
VH: QVQLVQSGAEVKKPGASVKVSCKASGYTFTNHYMHWVRQAPGQGLEWMGIINPISGSTSNAQKFQGRVTMTRDTSTSTVYMELSSLRSEDTAVYYCARDIVDAFDFWGQGTMVTVSS
VL: AIQLTQSPSSLSASVGDRVTITCRASQGISSALVWYQQKPGKAPKLLIYDASSLESGVPSRFSGSGSGTDFTLTISSLQPEDFATYYCQQFNDDFTFGPGTKVDIKR
notes: also called LC:Y94D; Y94D

How the values were obtained:
[1] = target: the molecule itself; experiment: X-ray crystal structure of the hFGF23(R179Q):burosumab Fab complex
Procedure: To further characterize the human FGF23-burosumab interaction, x-ray crystallographic study was carried out using fully glycosylated human FGF23 (R179Q) from HEK293S cell supernatant in complex with burosumab Fab fragments also expressed in HEK293S cells. Burosumab IgG heavy and light chains were subjected to papain digestion to separate Fc and Fab fragments, then Protein A to isolate Fab fragments of approximately 50 kDa, according to routine methods (Pierce™ Fab Preparation Kit, Thermo Scientific™, cat #!44985). Fully glycosylated human FGF23 (R179Q) and burosumab Fab fragments were incubated on ice for more than one hour (1:0.8 molar ratio) and the stable complex was isolated by size exclusion chromatography (SEC) followed by evaluation by SDS-PAGE. SEC fractions containing the complex were pooled, concentrated, and stored at −80° C.
Diffraction data was collected from a single crystal at the Advanced Photon Source (APS) synchrotron and processed using autoPROC (autoProc, XDS, POINTLESS, AIMLESS, CCP4, and STARANISO) (see Vonrhein C, Flensburg C, Keller P, Sharff A, Smart O, Paciorek W, Womack T, Bricogne G. Data processing and analysis with the autoPROC toolbox. Acta Crystallogr D Biol Crystallogr. 2011 April; 67(Pt 4):293-302. [doi:10.1107/S0907444911007773]). […]

[2] = target: T1, recombinant human FGF23 (R179Q); experiment: SPR, antibody captured on hIgG chip, human FGF23 analyte
[3] = target: T1, recombinant human FGF23 (R179Q); experiment: SPR, antibody captured on hIgG chip, rhFGF23(R179Q) analyte
[4] = target: T1, recombinant human FGF23 (R179Q); experiment: as above; remark: listed apart in the source
[5] = target: T2, cynomolgus monkey (Macaca fascicularis) …; experiment: SPR, antibody captured on hIgG chip, cynoFGF23(R179Q) analyte, single cycle kinetics
Procedure: Binding kinetics of 13 antibody variants shown in Table 19 were characterized against cynomolgus monkey (Macaca fascicularis) FGF23 (R179Q) (i.e., “cynoFGF23”) (SEQ ID NO: 372). Antibody variants were expressed at small scale (3 ml) and screened by SPR analysis at a single concentration (100 nM). Experimental setup of SPR analysis for CRC: SPR device—8K+; chip preparation—CM5 hIgG chip: channels—1-8; immobilization concentration—1.5 ug/ml; immobilization method—capture; flow rate—5 μl/min; contact time—60 s; running buffer—1×HBS-EP+pH 7.4; temperature—20° C.: flow rate—50 μl/min; association time—120 s; dissociation time—1800 s; antigen—cynoFGF23(R179Q): top concentration—0.1 μM, 9-pt 3-fold Single Cycle Kinetics.

Binder | binding result [1] | KD ratio (variant antibody KD/burosumab KD) [2] | Kd [2] [pM] | Kd [3] | koff [3] | kon [3] | Kd [4] [pM] | Ratio (variant antibody KD/burosumab KD) [4] | SA (surface activity) [4] [%] | koff [4] [s⁻¹] | kon [4] [M⁻¹ s⁻¹] | KD ratio (variant antibody KD/burosumab KD) [5] | Kd [5] [pM]
B1 | binds | – | – | – | – | – | – | – | – | – | – | – | –
B2 | – | 4 | 5.77 | 6.58 pM and 5.77 pM | 7.03e-05 s⁻¹ and 6.31e-05 s⁻¹ | 1.07e+07 M⁻¹ s⁻¹ and 1.09e+07 M⁻¹ s⁻¹ | 5.77 | 4 | 89.5 | 6.31e-05 | 1.09e+07 | 3 | 6.86
